Measured values from patent US20220119534A1 (DRAGONFLY THERAPEUTICS, published 2022).
Positions count from the first letter of the chain named. “And” between values parts separate entries of the source, which are not always exact repeats. Equal values may be shown once.

Experiments:
[1] = biological target: T1, human CLEC12A expressed on cells (human, UniProt Q5QGZ9 1-265); assay: flow cytometry on PL-21 cells, fold over background
T1 construct: Transduced isogenic cells or endogenous expression on AML cells; also called RMA-hCLEC12A; Ba/F3-hCLEC12A
T1 sequence: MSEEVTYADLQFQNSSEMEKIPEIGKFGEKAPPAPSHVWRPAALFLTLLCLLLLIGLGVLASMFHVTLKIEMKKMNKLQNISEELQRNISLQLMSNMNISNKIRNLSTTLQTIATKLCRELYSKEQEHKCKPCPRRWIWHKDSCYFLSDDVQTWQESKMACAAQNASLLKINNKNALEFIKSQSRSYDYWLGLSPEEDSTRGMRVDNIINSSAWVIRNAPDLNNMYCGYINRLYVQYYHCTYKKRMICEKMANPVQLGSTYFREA
Procedure: (§1) The cells were then incubated with a fluorophore conjugated anti-human IgG secondary antibody and were analyzed by flow cytometry. The mean fluorescence intensity (MFI) values were normalized to secondary antibody only controls to obtain fold over background (FOB) values.
100,000 cells were seeded per well into a 96-well plate for FACS staining. Cells were washed with PBS. Cells were incubated in a 1:2000 dilution of live/dead dye in PBS for 15 minutes, then washed with FACS buffer. TriNKETs or mAbs were diluted into FACS buffer, and 50 μl containing diluted TriNKET or mAb was added to cells. Cells were incubated on ice for 20 minutes. After the incubation, cells were washed with FACS buffer. Anti-human IgG-Fc secondary antibody was diluted into FACS buffer, and 50 μl was added per well for detection of the bound TriNKETs or mAbs. Cells were incubated for 20 minutes on ice, then washed with FACS buffer. 50 μl of fixation buffer was added to each well, and cells were incubated for 10 minutes at room temperature. […] Within the live gate, the mean fluorescence intensity (MFI) of each sample and the secondary-only control was calculated. Fold-over-background (FOB) was calculated as the ratio of test article MFI over secondary-only background MFI. […]

[2] = biological target: T1, human CLEC12A expressed on cells; assay: flow cytometry on RMA-hCLEC12A cells
[3] = biological target: T2, recombinant human CLEC12A-His (human, UniProt Q5QGZ9 65-265); assay: SPR screening, semi-purified
T2 construct: also called hCLEC12A-His; hCLEC12A
T2 sequence: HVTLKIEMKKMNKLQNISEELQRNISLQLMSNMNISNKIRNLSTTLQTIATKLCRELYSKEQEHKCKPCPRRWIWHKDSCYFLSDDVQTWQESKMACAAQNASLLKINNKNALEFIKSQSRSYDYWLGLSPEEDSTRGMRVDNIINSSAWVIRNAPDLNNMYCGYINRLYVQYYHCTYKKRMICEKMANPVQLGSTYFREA
Procedure: Binding affinities of the 18 semi-purified TriNKETs for hCLEC12A were assessed by SPR in screening.

[4] = biological target: T1, human CLEC12A expressed on cells; assay: flow cytometry on HL-60 cells, fold over background
Procedure: as §1
(§2) 100,000 cells were seeded per well into a 96-well plate for FACS staining. Cells were washed with PBS. Cells were incubated in a 1:2000 dilution of live/dead dye in PBS for 15 minutes, then washed with FACS buffer. TriNKETs or mAbs were diluted into FACS buffer, and 50 μl containing diluted TriNKET or mAb was added to cells. Cells were incubated on ice for 20 minutes. After the incubation, cells were washed with FACS buffer. Anti-human IgG-Fc secondary antibody was diluted into FACS buffer, and 50 μl was added per well for detection of the bound TriNKETs or mAbs. Cells were incubated for 20 minutes on ice, then washed with FACS buffer. 50 μl of fixation buffer was added to each well, and cells were incubated for 10 minutes at room temperature. Cells were washed with FACS buffer and resuspended in FACS buffer for analysis with BD FACS Celesta SN #H66034400085, or BD FACS Celesta SN #H66034400160. Cells of interest were identified using FSC vs. SSC plot, and an appropriately shaped gate was drawn around the cells. Within the gated cells, doublet cells were removed by viewing FSC-H vs FSC-A plot. Within the single cell population, live cells were gated. Within the live gate, the mean fluorescence intensity (MFI) of each sample and the secondary-only control was calculated. Fold-over-background (FOB) was calculated as the ratio of test article MFI over secondary-only background MFI. Data were fit to a four-parameter non-linear regression curve using GraphPad Prism 7.0.

[5] = biological target: T1, human CLEC12A expressed on cells; assay: flow cytometry on Ba/F3-hCLEC12A cells, fold over background
Procedure: as §1, §2

[6] = biological target: T1, human CLEC12A expressed on cells; assay: flow cytometry, hCLEC12A+ Ba/F3
[7] = biological target: T2, recombinant human CLEC12A-His; assay: SPR 37C
[8] = biological target: T2, recombinant human CLEC12A-His; assay: SPR 37C, average
[9] = biological target: T1, human CLEC12A expressed on cells; assay: flow cytometry, HL60
[10] = biological target: T1, human CLEC12A expressed on cells; assay: flow cytometry, hCLEC12A+ Ba/F3; remark: listed apart in the source

B1: AB0300 (other, name in EU numbering)
chain: QLQLQESGPGLVKPSETLSLTCTVSGFSLTNYGLHWIRQPPGKCLEWIGVIWSGGKTDYNPSLKSRVTISKDTSKNQFSLKLSSVQAADTAVYYCAKYDYDDSLDYWGQGTLVTVSSGGGGSGGGGSGGGGSGGGGSDIQMTQSPSSLSASVGDRVTITCHASQNINFWLSWYQQKPGKAPKLLIYEASNLHTGVPSRFSGSGSGTRFTLTISSLQPEDIATYYCQQSHSYPLTFGCGTKLEIKGSDKTHTCPPCPAPEAAGGPSVFLFPPKPKDTLMISRTPEVTCVVVDVSHEDPEVKFNWYVDGVEVHNAKTKPREEQYNSTYRVVSVLTVLHQDWLNGKEYKCKVSNKALGAPIEKTISKAKGQPREPRVYTLPPCRDELTKNQVSLTCLVKGFYPSDIAVEWESNGQPENNYKTTPPVLVSDGSFTLYSKLTVDKSRWQQGNVFSCSVMHEALHNHYTQKSLSLSPG
heavy: EVQLVESGGGLVKPGGSLRLSCAASGFTFSSYSMNWVRQAPGKGLEWVSSISSSSSYIYYADSVKGRFTISRDNAKNSLYLQMNSLRAEDTAVYYCARGAPIGAAAGWFDPWGQGTLVTVSSASTKGPSVFPLAPSSKSTSGGTAALGCLVKDYFPEPVTVSWNSGALTSGVHTFPAVLQSSGLYSLSSVVTVPSSSLGTQTYICNVNHKPSNTKVDKKVEPKSCDKTHTCPPCPAPEAAGGPSVFLFPPKPKDTLMISRTPEVTCVVVDVSHEDPEVKFNWYVDGVEVHNAKTKPREEQYNSTYRVVSVLTVLHQDWLNGKEYKCKVSNKALGAPIEKTISKAKGQPREPQVCTLPPSRDELTENQVSLTCLVKGFYPSDIAVEWESNGQPENNYKTTPPVLDSDGSFFLYSWLTVDKSRWQQGNVFSCSVMHEALHNHYTQKSLSLSPG
light: DIQMTQSPSSVSASVGDRVTITCRASQGISSWLAWYQQKPGKAPKLLIYAASSLQSGVPSRFSGSGSGTDFTLTISSLQPEDFATYYCQQGVSFPRTFGGGTKVEIKRTVAAPSVFIFPPSDEQLKSGTASVVCLLNNFYPREAKVQWKVDNALQSGNSQESVTEQDSKDSTYSLSSTLTLSKADYEKHKVYACEVTHQGLSSPVTKSFNRGEC
notes: AB0237 with LALAPG in both Fc chains
EC50 (read off the curve) [1]: ~2 nM

B2: F3'-1304 (other)
chain: DIQMTQSPSSLSASVGDRVTITCHASQNINFWLSWYQQKPGKIPKLLIYEASNLHTGVPSRFSGSGSGTRFTLTISSLQPEDIATYYCQQSHSYPLTFGCGTKLEIKGGGGSGGGGSGGGGSGGGGSQLQLQESGPGLVKPSETLSLTCTVSGFSLTNYGLHWIRQPPGKCLEWIGVIWSGGKTDYNPSLKSRVTISKDTSKNQFSLKLSSVQAADTAVYYCAKYDYDDSLDYWGQGTLVTVSSGSDKTHTCPPCPAPELLGGPSVFLFPPKPKDTLMISRTPEVTCVVVDVSHEDPEVKFNWYVDGVEVHNAKTKPREEQYNSTYRVVSVLTVLHQDWLNGKEYKCKVSNKALPAPIEKTISKAKGQPREPRVYTLPPCRDELTKNQVSLTCLVKGFYPSDIAVEWESNGQPENNYKTTPPVLVSDGSFTLYSKLTVDKSRWQQGNVFSCSVMHEALHNHYTQKSLSLSPG
heavy: B1 heavy with A239L, A240L, G334P
light: B1 light
notes: As F3'-1292
EC50 (read off the curve) [2]: ~10 nM
Kd [3]: 2.7 nM
koff [3]: 0.0013 s⁻¹
kon [3]: 480000 M⁻¹ s⁻¹

B3: AB0306 (antibody, IgG1, V domains shown)
VH: EVQLVESGGGVVQPGGSLRLSCAASGFTFNAFGMHWVRQAPGKGLEWVAFISSGSTSIYYANTVKGRFTISRDNSKNTLYLQMNSLRAEDTAVYYCARDGYPTGGAMDYWGQGTSVTVSS
VL: DIQMTQSPSSLSASVGDRVTITCKASQDIYNYLSWFQQKPGKAPKPLIYRANILVSGVPSRFSGSGSGQDYTFTISSLQPEDIATYYCLQFDAFPFTFGSGTKLEIK
notes: hIgG1 mAb; also called Humanized 1797 anti-CLEC12A mAb; parental mAb of AB0192
EC50 (read off the curve) [4]: ~0.5 nM
EC50 (read off the curve) [5]: ~0.8 nM

B4: AB0010 (other)
chain: DIQMTQSPSSVSASVGDRVTITCRASQGISSWLAWYQQKPGKAPKLLIYAASSLQSGVPSRFSGSGSGTDFTLTISSLQPEDFATYYCQQGVSFPRTFGGGTKVEIKGGGGSGGGGSGGGGSGGGGSEVQLVESGGGLVKPGGSLRLSCAASGFTFSSYSMNWVRQAPGKGLEWVSSISSSSSYIYYADSVKGRFTISRDNAKNSLYLQMNSLRAEDTAVYYCARGAPIGAAAGWFDPWGQGTLVTVSSGSDKTHTCPPCPAPELLGGPSVFLFPPKPKDTLMISRTPEVTCVVVDVSHEDPEVKFNWYVDGVEVHNAKTKPREEQYNSTYRVVSVLTVLHQDWLNGKEYKCKVSNKALPAPIEKTISKAKGQPREPRVYTLPPCRDELTKNQVSLTCLVKGFYPSDIAVEWESNGQPENNYKTTPPVLVSDGSFTLYSKLTVDKSRWQQGNVFSCSVMHEALHNHYTQKSLSLSPG
heavy: QLQLQESGPGLVKPSETLSLTCTVSGFSLTNYGLHWIRQPPGKGLEWIGVIWSGGKTDYNPSLKSRVTISKDTSKNQFSLKLSSVQAADTAVYYCAKYDYDDSLDYWGQGTLVTVSSASTKGPSVFPLAPSSKSTSGGTAALGCLVKDYFPEPVTVSWNSGALTSGVHTFPAVLQSSGLYSLSSVVTVPSSSLGTQTYICNVNHKPSNTKVDKKVEPKSCDKTHTCPPCPAPELLGGPSVFLFPPKPKDTLMISRTPEVTCVVVDVSHEDPEVKFNWYVDGVEVHNAKTKPREEQYNSTYRVVSVLTVLHQDWLNGKEYKCKVSNKALPAPIEKTISKAKGQPREPQVCTLPPSRDELTENQVSLTCLVKGFYPSDIAVEWESNGQPENNYKTTPPVLDSDGSFFLYSWLTVDKSRWQQGNVFSCSVMHEALHNHYTQKSLSLSPG
light: DIQMTQSPSSLSASVGDRVTITCHASQNINFWLSWYQQKPGKAPKLLIYEASNLHTGVPSRFSGSGSGTRFTLTISSLQPEDIATYYCQQSHSYPLTFGGGTKLEIKRTVAAPSVFIFPPSDEQLKSGTASVVCLLNNFYPREAKVQWKVDNALQSGNSQESVTEQDSKDSTYSLSSTLTLSKADYEKHKVYACEVTHQGLSSPVTKSFNRGEC
notes: NKG2D scFv-Fc, CLEC12A Fab-Fc
EC50 [6]: 6.13 nM
Kd [7]: 0.71 nM and 0.77 nM
koff [7]: 0.000508 s⁻¹ and 0.000541 s⁻¹
kon [7]: 715000 M⁻¹ s⁻¹ and 704000 M⁻¹ s⁻¹
Kd [8]: 0.74 nM
koff [8]: 0.000525 s⁻¹
kon [8]: 710000 M⁻¹ s⁻¹
EC50 [9]: 4.2 nM

B5: hcFAE-A49.CLL1-Merus (bispecific antibody, V domains shown)
VH 1: EVQLVQSGAEVKKPGASVKVSCKASGYTFTSYYMHWVRQAPGQGLEWMGIINPSGGSTSYAQKFQGRVTMTRDTSTSTVYMELSSLRSEDTAVYYCARGNYGDEFDYWGQGTLVTVSS
VL 1: not shown
VH 2: EVQLVESGGGLVKPGGSLRLSCAASGFTFSSYSMNWVRQAPGKGLEWVSSISSSSSYIYYADSVKGRFTISRDNAKNSLYLQMNSLRAEDTAVYYCARGAPMGAAAGWFDPWGQGTLVTVSS
VL 2: DIQMTQSPSSVSASVGDRVTITCRASQGISSWLAWYQQKPGKAPKLLIYAASSLQSGVPSRFSGSGSGTDFTLTISSLQPEDFATYYCQQGVSFPRTFGGGTKVEIK
notes: Duobody TriNKET: CLEC12A Fab of Merus CLL1 and NKG2D Fab A49; also called hcFAE-A49.CLL-Merus; control CLEC12A-TriNKET
EC50 [10]: 14.3 nM
Max MFI [10]: 39700 MFI
EC50 (read off the curve) [2]: ~3 nM

B6: AB0305 (antibody, IgG1, V domains shown)
VH: QLQLQESGPGLVKPSETLSLTCTVSGFSLTNYGLHWIRQPPGKGLEWIGVIWVGGATDYNPSLKSRVTISVDTSKNQFSLKLSSVQAADTAVYYCAKGDYGDTLDYWGQGTLVTVSS
VL: DIQMTQSPSSLSASVGDRVTITCHASQNINFWLSWYQQKPGKAPKLLIYEASNLHTGVPSRFSGSGSGTDFTLTISSLQPEDFATYYCQQSHSYPLTFGSGTKLEIK
notes: hIgG1 mAb; also called Humanized 1739 anti-CLEC12A mAb; parental mAb of AB0089
EC50 (read off the curve) [4]: ~0.1 nM
EC50 (read off the curve) [5]: ~0.6 nM
